Reference: patent publication US20040254351A1 (published 2004)

T1: G-CSF receptor
T1 sequence (Q99062 whole entry, species assumed, looked up): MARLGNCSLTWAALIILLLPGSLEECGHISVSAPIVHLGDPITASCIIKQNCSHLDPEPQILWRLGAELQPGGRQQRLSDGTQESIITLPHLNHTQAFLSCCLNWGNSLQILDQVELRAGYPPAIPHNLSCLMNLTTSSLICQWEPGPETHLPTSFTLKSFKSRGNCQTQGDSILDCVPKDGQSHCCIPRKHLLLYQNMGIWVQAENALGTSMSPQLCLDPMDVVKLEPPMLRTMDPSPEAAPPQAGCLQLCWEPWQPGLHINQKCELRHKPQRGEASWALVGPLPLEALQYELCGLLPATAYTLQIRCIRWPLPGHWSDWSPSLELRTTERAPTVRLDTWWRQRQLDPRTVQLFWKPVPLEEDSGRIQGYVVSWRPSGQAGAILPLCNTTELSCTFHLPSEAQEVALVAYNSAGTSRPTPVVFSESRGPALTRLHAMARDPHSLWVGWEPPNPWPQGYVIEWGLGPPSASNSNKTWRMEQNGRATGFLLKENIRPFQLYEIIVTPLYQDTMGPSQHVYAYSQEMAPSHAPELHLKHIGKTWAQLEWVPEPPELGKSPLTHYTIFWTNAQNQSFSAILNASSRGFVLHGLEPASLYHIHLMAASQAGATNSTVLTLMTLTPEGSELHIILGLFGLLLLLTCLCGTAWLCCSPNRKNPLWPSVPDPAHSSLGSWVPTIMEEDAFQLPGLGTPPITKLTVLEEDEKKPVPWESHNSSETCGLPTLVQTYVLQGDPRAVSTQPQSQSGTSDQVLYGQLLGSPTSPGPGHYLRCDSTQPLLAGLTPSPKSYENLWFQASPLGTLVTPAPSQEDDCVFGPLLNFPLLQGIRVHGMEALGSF


These binders were tested against T1, G-CSF receptor (assay: cell-based or functional assay).

Row | Binder | EC50/Neupogen (reporter activity in cells expressing the G-CSF receptor)
1 | G-CSF[E93N,I95T] (ligand, consensus N-linked glycosylation site at Asn 93 (region 10)) TPLGPASSLPQSFLLKALEQVRKIQGDGAALQEKLCATYKLCHPEELVLLGHSLGIPWAPLSSCPSQALQLAGCLSQLHSGLFLYQGLLQALNGTSPELGPTLDTLQLDVADFATTIWQQMEELGMAPALQPTQGAMPAFASAFQRRAGGVLVASHLQSFLEVSYRVLRHLAQP | 0.36 ratio to Neupogen
2 | G-CSF[A37N,Y39T] (ligand, consensus N-linked glycosylation site at Asn 37 (region 1)) TPLGPASSLPQSFLLKALEQVRKIQGDGAALQEKLCNTTKLCHPEELVLLGHSLGIPWAPLSSCPSQALQLAGCLSQLHSGLFLYQGLLQALEGISPELGPTLDTLQLDVADFATTIWQQMEELGMAPALQPTQGAMPAFASAFQRRAGGVLVASHLQSFLEVSYRVLRHLAQP | 0.8 ratio to Neupogen
3 | G-CSF[A37N,Y39T,S63N,P65T,E93N,I95T] (ligand, consensus N-linked glycosylation sites at Asn 37, Asn 63 and Asn 93 (regions 1, 7 and 10)) TPLGPASSLPQSFLLKALEQVRKIQGDGAALQEKLCNTTKLCHPEELVLLGHSLGIPWAPLSNCTSQALQLAGCLSQLHSGLFLYQGLLQALNGTSPELGPTLDTLQLDVADFATTIWQQMEELGMAPALQPTQGAMPAFASAFQRRAGGVLVASHLQSFLEVSYRVLRHLAQP | 0.97 ratio to Neupogen
4 | G-CSF[A141N,A143T] (ligand, consensus N-linked glycosylation site at Asn 141 (region 14)) TPLGPASSLPQSFLLKALEQVRKIQGDGAALQEKLCATYKLCHPEELVLLGHSLGIPWAPLSSCPSQALQLAGCLSQLHSGLFLYQGLLQALEGISPELGPTLDTLQLDVADFATTIWQQMEELGMAPALQPTQGAMPAFNSTFQRRAGGVLVASHLQSFLEVSYRVLRHLAQP | 0.54 ratio to Neupogen
5 | G-CSF[A37N,Y39T,P57V,W58N,P60T,Q67N,L69T] (ligand, consensus N-linked glycosylation sites at Asn 37, Asn 58 and Asn 67 (regions 1, 2 and 9)) TPLGPASSLPQSFLLKALEQVRKIQGDGAALQEKLCNTTKLCHPEELVLLGHSLGIVNATLSSCPSNATQLAGCLSQLHSGLFLYQGLLQALEGISPELGPTLDTLQLDVADFATTIWQQMEELGMAPALQPTQGAMPAFASAFQRRAGGVLVASHLQSFLEVSYRVLRHLAQP | 0.53 ratio to Neupogen

Continued, values first:

Row | EC50/Neupogen (reporter activity in cells expressing the G-CSF receptor) | Binder
6 | 0.59 ratio to Neupogen | G-CSF[P57V,W58N,P60T] (ligand, consensus N-linked glycosylation site at Asn 58 (region 2)) TPLGPASSLPQSFLLKALEQVRKIQGDGAALQEKLCATYKLCHPEELVLLGHSLGIVNATLSSCPSQALQLAGCLSQLHSGLFLYQGLLQALEGISPELGPTLDTLQLDVADFATTIWQQMEELGMAPALQPTQGAMPAFASAFQRRAGGVLVASHLQSFLEVSYRVLRHLAQP
7 | 0.94 ratio to Neupogen | G-CSF[P60N,S62T] (ligand, consensus N-linked glycosylation site at Asn 60 (region 4)) TPLGPASSLPQSFLLKALEQVRKIQGDGAALQEKLCATYKLCHPEELVLLGHSLGIPWANLTSCPSQALQLAGCLSQLHSGLFLYQGLLQALEGISPELGPTLDTLQLDVADFATTIWQQMEELGMAPALQPTQGAMPAFASAFQRRAGGVLVASHLQSFLEVSYRVLRHLAQP
8 | 0.37 ratio to Neupogen | G-CSF[T133N,G135T] (ligand, consensus N-linked glycosylation site at Asn 133 (region 13), replacing the O-linked site) TPLGPASSLPQSFLLKALEQVRKIQGDGAALQEKLCATYKLCHPEELVLLGHSLGIPWAPLSSCPSQALQLAGCLSQLHSGLFLYQGLLQALEGISPELGPTLDTLQLDVADFATTIWQQMEELGMAPALQPNQTAMPAFASAFQRRAGGVLVASHLQSFLEVSYRVLRHLAQP
9 | 0.78 ratio to Neupogen | G-CSF[Q67N,L69T] (ligand, consensus N-linked glycosylation site at Asn 67 (region 9)) TPLGPASSLPQSFLLKALEQVRKIQGDGAALQEKLCATYKLCHPEELVLLGHSLGIPWAPLSSCPSNATQLAGCLSQLHSGLFLYQGLLQALEGISPELGPTLDTLQLDVADFATTIWQQMEELGMAPALQPTQGAMPAFASAFQRRAGGVLVASHLQSFLEVSYRVLRHLAQP
10 | 0.9 ratio to Neupogen | G-CSF[S63N,P65T] (ligand, consensus N-linked glycosylation site at Asn 63 (region 7)) TPLGPASSLPQSFLLKALEQVRKIQGDGAALQEKLCATYKLCHPEELVLLGHSLGIPWAPLSNCTSQALQLAGCLSQLHSGLFLYQGLLQALEGISPELGPTLDTLQLDVADFATTIWQQMEELGMAPALQPTQGAMPAFASAFQRRAGGVLVASHLQSFLEVSYRVLRHLAQP
